# Source: IntAct's records for PubMed 31515488
# B1: Sulfotransferase 1A1 (Homo sapiens), P50225 (parent)
# chain: MELIQDTSRPPLEYVKGVPLIKYFAEALGPLQSFQARPDDLLISTYPKSGTTWVSQILDMIYQGGDLEKCHRAPIFMRVPFLEFKAPGIPSGMETLKDTPAPRLLKTHLPLALLPQTLLDQKVKVVYVARNAKDVAVSYYHFYHMAKVHPEPGTWDSFLEKFMVGEVSYGSWYQHVQEWWELSRTHPVLYLFYEDMKENPKREIQKILEFVGRSLPEETVDFVVQHTSFKEMKKNPMTNYTTVPQEFMDHSISPFMRKGMAGDWKTTFTVAQNERFDADYAEKMAGCSLSFRSEL
# partner: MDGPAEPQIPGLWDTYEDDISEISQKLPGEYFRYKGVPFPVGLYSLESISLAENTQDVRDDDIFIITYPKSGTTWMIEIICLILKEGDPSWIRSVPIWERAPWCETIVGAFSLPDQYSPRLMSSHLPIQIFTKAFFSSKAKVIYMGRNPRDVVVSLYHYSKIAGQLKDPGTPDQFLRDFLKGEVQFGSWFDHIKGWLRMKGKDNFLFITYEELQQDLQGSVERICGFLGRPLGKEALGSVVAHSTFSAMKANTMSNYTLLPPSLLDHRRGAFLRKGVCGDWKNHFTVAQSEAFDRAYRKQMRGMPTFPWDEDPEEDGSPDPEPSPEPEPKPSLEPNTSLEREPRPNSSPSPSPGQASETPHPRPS
# B2: "Dol-P-Man:Man(5)GlcNAc(2)-PP-Dol alpha-1,3-mannosyltransferase" (Homo sapiens), Q92685 (parent)
# chain: MAAGLRKRGRSGSAAQAEGLCKQWLQRAWQERRLLLREPRYTLLVAACLCLAEVGITFWVIHRVAYTEIDWKAYMAEVEGVINGTYDYTQLQGDTGPLVYPAGFVYIFMGLYYATSRGTDIRMAQNIFAVLYLATLLLVFLIYHQTCKVPPFVFFFMCCASYRVHSIFVLRLFNDPVAMVLLFLSINLLLAQRWGWGCCFFSLAVSVKMNVLLFAPGLLFLLLTQFGFRGALPKLGICAGLQVVLGLPFLLENPSGYLSRSFDLGRQFLFHWTVNWRFLPEALFLHRAFHLALLTAHLTLLLLFALCRWHRTGESILSLLRDPSKRKVPPQPLTPNQIVSTLFTSNFIGICFSRSLHYQFYVWYFHTLPYLLWAMPARWLTHLLRLLVLGLIELSWNTYPSTSCSSAALHICHAVILLQLWLGPQPFPKSTQHSKKAH
# partner: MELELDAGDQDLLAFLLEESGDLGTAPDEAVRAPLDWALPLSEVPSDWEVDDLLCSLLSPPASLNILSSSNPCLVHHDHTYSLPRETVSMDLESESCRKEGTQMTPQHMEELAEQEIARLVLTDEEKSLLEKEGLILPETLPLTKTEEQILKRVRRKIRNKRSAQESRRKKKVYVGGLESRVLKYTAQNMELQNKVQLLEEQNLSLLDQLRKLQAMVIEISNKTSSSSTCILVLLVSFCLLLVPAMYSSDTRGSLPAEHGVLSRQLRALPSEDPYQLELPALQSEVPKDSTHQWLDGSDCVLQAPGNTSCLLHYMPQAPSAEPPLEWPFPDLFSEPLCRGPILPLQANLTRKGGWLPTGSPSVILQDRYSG
# B3: Tripartite motif-containing protein 29 (Homo sapiens), Q14134 (parent)
# chain: MEAADASRSNGSSPEARDARSPSGPSGSLENGTKADGKDAKTTNGHGGEAAEGKSLGSALKPGEGRSALFAGNEWRRPIIQFVESGDDKNSNYFSMDSMEGKRSPYAGLQLGAAKKPPVTFAEKGELRKSIFSESRKPTVSIMEPGETRRNSYPRADTGLFSRSKSGSEEVLCDSCIGNKQKAVKSCLVCQASFCELHLKPHLEGAAFRDHQLLEPIRDFEARKCPVHGKTMELFCQTDQTCICYLCMFQEHKNHSTVTVEEAKAEKETELSLQKEQLQLKIIEIEDEAEKWQKEKDRIKSFTTNEKAILEQNFRDLVRDLEKQKEEVRAALEQREQDAVDQVKVIMDALDERAKVLHEDKQTREQLHSISDSVLFLQEFGALMSNYSLPPPLPTYHVLLEGEGLGQSLGNFKDDLLNVCMRHVEKMCKADLSRNFIERNHMENGGDHRYVNNYTNSFGGEWSAPDTMKRYSMYLTPKGGVRTSYQPSSPGRFTKETTQKNFNNLYGTKGNYTSRVWEYSSSIQNSDNDLPVVQGSSSFSLKGYPSLMRSQSPKAQPQTWKSGKQTMLSHYRPFYVNKGNGIGSNEAP
# B4: Four and a half LIM domains protein 2 (Homo sapiens), Q14192 (parent)
# chain: MTERFDCHHCNESLFGKKYILREESPYCVVCFETLFANTCEECGKPIGCDCKDLSYKDRHWHEACFHCSQCRNSLVDKPFAAKEDQLLCTDCYSNEYSSKCQECKKTIMPGTRKMEYKGSSWHETCFICHRCQQPIGTKSFIPKDNQNFCVPCYEKQHAMQCVQCKKPITTGGVTYREQPWHKECFVCTACRKQLSGQRFTARDDFAYCLNCFCDLYAKKCAGCTNPISGLGGTKYISFEERQWHNDCFNCKKCSLSLVGRGFLTERDDILCPDCGKDI
# partner: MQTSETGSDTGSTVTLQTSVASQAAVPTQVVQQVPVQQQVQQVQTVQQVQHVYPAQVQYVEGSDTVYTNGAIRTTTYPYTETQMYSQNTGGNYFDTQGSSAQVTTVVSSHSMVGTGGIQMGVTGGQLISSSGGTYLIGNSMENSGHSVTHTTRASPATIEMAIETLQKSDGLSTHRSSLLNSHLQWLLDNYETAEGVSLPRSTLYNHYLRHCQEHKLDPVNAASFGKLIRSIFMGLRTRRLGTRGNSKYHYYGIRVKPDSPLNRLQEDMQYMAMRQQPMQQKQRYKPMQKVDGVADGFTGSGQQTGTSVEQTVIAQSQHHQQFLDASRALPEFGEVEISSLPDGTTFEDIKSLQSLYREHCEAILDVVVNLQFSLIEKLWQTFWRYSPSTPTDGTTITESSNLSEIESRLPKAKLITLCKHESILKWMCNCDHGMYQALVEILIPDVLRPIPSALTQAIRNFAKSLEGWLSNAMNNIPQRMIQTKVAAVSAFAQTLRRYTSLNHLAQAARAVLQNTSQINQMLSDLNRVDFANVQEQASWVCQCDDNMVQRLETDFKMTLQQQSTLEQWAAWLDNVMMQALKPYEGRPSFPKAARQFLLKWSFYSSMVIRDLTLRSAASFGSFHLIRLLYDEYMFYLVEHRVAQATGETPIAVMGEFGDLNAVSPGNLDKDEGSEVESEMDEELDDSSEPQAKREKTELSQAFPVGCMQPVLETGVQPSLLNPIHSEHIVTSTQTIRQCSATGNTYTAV
# B5: Polyunsaturated fatty acid 5-lipoxygenase (Homo sapiens), P09917 (parent)
# chain: MPSYTVTVATGSQWFAGTDDYIYLSLVGSAGCSEKHLLDKPFYNDFERGAVDSYDVTVDEELGEIQLVRIEKRKYWLNDDWYLKYITLKTPHGDYIEFPCYRWITGDVEVVLRDGRAKLARDDQIHILKQHRRKELETRQKQYRWMEWNPGFPLSIDAKCHKDLPRDIQFDSEKGVDFVLNYSKAMENLFINRFMHMFQSSWNDFADFEKIFVKISNTISERVMNHWQEDLMFGYQFLNGCNPVLIRRCTELPEKLPVTTEMVECSLERQLSLEQEVQQGNIFIVDFELLDGIDANKTDPCTLQFLAAPICLLYKNLANKIVPIAIQLNQIPGDENPIFLPSDAKYDWLLAKIWVRSSDFHVHQTITHLLRTHLVSEVFGIAMYRQLPAVHPIFKLLVAHVRFTIAINTKAREQLICECGLFDKANATGGGGHVQMVQRAMKDLTYASLCFPEAIKARGMESKEDIPYYFYRDDGLLVWEAIRTFTAEVVDIYYEGDQVVEEDPELQDFVNDVYVYGMRGRKSSGFPKSVKSREQLSEYLTVVIFTASAQHAAVNFGQYDWCSWIPNAPPTMRAPPPTAKGVVTIEQIVDTLPDRGRSCWHLGAVWALSQFQENELFLGMYPEEHFIEKPVKEAMARFRKNLEAIVSVIAERNKKKQLPYYYLSPDRIPNSVAI
# B6: Ribose-phosphate pyrophosphokinase 1 (Homo sapiens), P60891 (parent)
# chain: MPNIKIFSGSSHQDLSQKIADRLGLELGKVVTKKFSNQETCVEIGESVRGEDVYIVQSGCGEINDNLMELLIMINACKIASASRVTAVIPCFPYARQDKKDKSRAPISAKLVANMLSVAGADHIITMDLHASQIQGFFDIPVDNLYAEPAVLKWIRENISEWRNCTIVSPDAGGAKRVTSIADRLNVDFALIHKERKKANEVDRMVLVGDVKDRVAILVDDMADTCGTICHAADKLLSAGATRVYAILTHGIFSGPAISRINNACFEAVVVTNTIPQEDKMKHCSKIQVIDISMILAEAIRRTHNGESVSYLFSHVPL
# partner: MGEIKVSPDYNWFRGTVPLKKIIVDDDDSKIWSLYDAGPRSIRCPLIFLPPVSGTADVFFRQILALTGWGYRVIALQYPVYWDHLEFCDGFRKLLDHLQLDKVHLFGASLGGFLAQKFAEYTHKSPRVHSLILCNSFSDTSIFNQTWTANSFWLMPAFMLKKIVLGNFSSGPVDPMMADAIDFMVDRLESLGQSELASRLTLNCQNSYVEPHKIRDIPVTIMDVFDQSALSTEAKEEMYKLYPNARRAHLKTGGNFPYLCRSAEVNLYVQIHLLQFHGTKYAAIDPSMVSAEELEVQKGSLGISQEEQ
# Variants of: B1
# Conditions: with st2b1_human SULT2B1, O00204
row,effect of a mutation on the interaction,Variant
1,with no effect,V223M

# Variants of: B2
# Conditions: with creb3_human CREB3, O43889
row,effect of a mutation on the interaction,Variant
1,with no effect,I107V

# Variants of: B3
# Conditions: with tri23_human TRIM23, P36406
# tri23_human TRIM23, P36406, sequence (P36406 whole entry): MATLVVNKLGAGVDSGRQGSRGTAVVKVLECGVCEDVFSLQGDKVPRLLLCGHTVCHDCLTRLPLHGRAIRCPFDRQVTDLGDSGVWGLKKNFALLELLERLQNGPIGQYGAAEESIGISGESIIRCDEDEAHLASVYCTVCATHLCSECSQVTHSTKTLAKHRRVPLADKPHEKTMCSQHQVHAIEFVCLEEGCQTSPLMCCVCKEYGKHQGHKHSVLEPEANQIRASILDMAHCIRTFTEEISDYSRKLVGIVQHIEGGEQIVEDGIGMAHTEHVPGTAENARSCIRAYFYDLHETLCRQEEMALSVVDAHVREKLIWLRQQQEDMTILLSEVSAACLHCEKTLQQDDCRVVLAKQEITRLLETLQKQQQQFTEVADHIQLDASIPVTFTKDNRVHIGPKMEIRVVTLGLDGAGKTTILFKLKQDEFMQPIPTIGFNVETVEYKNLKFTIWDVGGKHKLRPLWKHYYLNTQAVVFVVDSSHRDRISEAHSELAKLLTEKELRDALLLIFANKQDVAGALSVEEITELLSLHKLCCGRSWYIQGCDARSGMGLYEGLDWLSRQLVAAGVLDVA
row,effect of a mutation on the interaction,Variant
1,with no effect,S91C

# Variants of: B3
# Conditions: with cep70_human CEP70, Q8NHQ1
# cep70_human CEP70, Q8NHQ1, sequence (Q8NHQ1 whole entry): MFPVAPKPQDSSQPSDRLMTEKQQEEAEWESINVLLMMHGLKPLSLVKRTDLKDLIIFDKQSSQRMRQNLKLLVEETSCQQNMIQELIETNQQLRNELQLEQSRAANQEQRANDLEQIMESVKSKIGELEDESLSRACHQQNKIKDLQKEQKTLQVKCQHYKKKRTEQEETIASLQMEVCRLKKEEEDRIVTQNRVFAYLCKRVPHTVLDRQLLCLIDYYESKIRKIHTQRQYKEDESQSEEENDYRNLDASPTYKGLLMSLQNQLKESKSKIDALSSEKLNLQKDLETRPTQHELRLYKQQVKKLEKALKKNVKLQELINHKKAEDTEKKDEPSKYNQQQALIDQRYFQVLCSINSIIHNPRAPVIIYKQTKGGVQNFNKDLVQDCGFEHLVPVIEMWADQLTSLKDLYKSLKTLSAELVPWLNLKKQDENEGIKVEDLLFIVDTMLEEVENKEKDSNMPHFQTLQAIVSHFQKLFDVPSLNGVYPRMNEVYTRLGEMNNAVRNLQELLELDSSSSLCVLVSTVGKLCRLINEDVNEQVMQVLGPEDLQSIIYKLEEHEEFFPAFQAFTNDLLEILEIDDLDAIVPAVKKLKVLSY
row,effect of a mutation on the interaction,Variant
1,with no effect,S91C

# Variants of: B3
# Conditions: with tri23_human TRIM23, P36406
# Remark: another data set of the same source
row,effect of a mutation on the interaction,Variant
1,with no effect,S514F

# Variants of: B3
# Conditions: with cep70_human CEP70, Q8NHQ1
# Remark: another data set of the same source
row,effect of a mutation on the interaction,Variant
1,disrupting interaction strength,S514F

# Variants of: B4
# Conditions: with rfx3_human RFX3, P48380
row,effect of a mutation on the interaction,Variant
1,with no effect,A37S
2,with no effect,N95K

# Variants of: B5
# Conditions: with cep63_human CEP63, Q96MT8
# cep63_human CEP63, Q96MT8, sequence (Q96MT8 whole entry): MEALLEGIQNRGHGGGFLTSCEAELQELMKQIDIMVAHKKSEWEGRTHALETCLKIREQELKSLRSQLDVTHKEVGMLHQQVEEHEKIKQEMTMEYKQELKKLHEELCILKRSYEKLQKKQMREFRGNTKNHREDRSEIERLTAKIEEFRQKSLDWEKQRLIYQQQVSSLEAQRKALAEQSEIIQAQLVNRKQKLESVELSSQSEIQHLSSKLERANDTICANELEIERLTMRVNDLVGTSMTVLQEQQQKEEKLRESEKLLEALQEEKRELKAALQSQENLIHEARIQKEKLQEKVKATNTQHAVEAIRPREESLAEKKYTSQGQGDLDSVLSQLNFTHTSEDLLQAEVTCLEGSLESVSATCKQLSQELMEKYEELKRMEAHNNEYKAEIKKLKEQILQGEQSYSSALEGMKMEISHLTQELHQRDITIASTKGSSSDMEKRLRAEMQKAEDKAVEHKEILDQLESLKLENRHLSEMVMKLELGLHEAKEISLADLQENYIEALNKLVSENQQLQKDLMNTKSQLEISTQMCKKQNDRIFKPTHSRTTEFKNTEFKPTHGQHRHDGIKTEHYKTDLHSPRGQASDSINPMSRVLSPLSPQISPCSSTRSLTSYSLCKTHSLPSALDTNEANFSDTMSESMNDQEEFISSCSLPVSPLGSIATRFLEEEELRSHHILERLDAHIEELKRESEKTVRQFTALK
row,effect of a mutation on the interaction,Variant
1,with no effect,E254K

# Variants of: B5
# Conditions: with nutm1_human NUTM1, Q86Y26
# nutm1_human NUTM1, Q86Y26, sequence (Q86Y26 whole entry): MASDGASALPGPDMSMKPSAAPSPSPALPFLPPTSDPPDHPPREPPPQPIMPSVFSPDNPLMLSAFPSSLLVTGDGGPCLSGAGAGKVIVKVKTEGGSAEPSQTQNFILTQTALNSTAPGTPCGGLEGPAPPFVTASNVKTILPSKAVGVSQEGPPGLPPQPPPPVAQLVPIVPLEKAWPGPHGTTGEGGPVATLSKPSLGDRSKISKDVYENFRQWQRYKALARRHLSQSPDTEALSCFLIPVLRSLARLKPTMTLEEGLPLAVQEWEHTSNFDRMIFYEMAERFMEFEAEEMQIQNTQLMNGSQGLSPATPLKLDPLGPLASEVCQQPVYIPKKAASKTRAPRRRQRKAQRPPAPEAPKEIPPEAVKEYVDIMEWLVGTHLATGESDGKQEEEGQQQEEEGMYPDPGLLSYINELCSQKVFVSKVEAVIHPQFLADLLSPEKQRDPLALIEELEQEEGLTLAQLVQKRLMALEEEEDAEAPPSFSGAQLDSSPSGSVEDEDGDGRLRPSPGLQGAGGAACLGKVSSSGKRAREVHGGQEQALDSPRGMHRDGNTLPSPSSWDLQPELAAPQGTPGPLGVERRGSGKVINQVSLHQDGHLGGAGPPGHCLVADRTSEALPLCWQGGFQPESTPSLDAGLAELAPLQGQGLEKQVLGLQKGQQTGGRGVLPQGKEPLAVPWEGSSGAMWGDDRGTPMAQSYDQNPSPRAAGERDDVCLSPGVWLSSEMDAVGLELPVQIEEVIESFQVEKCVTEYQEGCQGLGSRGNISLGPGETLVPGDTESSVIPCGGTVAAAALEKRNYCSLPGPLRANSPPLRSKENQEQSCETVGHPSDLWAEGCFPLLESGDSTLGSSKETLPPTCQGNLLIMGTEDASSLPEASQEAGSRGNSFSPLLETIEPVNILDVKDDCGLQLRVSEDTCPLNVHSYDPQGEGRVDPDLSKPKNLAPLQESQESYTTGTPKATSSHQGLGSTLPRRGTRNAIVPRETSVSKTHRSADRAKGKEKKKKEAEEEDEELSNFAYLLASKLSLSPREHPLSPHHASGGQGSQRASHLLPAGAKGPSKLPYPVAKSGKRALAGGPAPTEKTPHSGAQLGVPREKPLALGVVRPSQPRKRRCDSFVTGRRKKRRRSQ
row,effect of a mutation on the interaction,Variant
1,with no effect,E254K

# Variants of: B6
# Conditions: with spg21_human SPG21, Q9NZD8
row,effect of a mutation on the interaction,Variant
1,with no effect,E43D
2,with no effect,D183H
